Reference: patent publication US20200087400A1 (EUREKA THERAPEUTICS, published 2020)
Substitutions are numbered along the chain they refer to.

B1: PSA146/HLA-A*02:01-specific scFv phage clone #15 (scFv, V domains shown)
VH: QVQLVQSGAEVKKPGSSVKVSCKASGGTFSSYAISWVRQAPGQGLEWMGRIIPILGIANYAQKFQGRVTITADKSTSTAYMELSSLRSEDTAVYYCARVSQPVYGSSTYDIWGQGTLVTVSS
VL: QAVLTQPPSASGTPGQRVTISCSGRSSNLGSNSVNWYQQVPGTAPKLLIFDNHQRPSGVPDRFSGSKSGTSASLAISGLRSEDETDYYCAAWDDSLNSVVFGGGTKLTVLG
B2: PSA146/HLA-A*02:01-specific scFv phage clone #17 (scFv, V domains shown)
VH: QMQLVQSGAEVKKPGESLKISCKGSGYSFTSYWIGWVRQMPGKGLEWMGIIYPGDSDTRYSPSFQGQVTISADKSISTAYLQWSSLKASDTAMYYCARLVVPDAFDIWGQGTMVTVSS
VL: QSVVTQPPSVSAAPGQKVTISCSGSSSNIGNNYVSWYQQLPGTAPKLLIYDNYKRPSGIPDRFSGSKSGTSATLGITGLQTGDEADYYCGTWDSSLSAGVFGGGTKLTVLG
B3: PSA146/HLA-A*02:01-specific scFv phage clone #13 (scFv, V domains shown)
VH: QVQLVQSGAEVKKPGASVKVSCKASGYTFTSYYMHWVRQAPGQGLEWMGGFDPEDGETIYAQKFQGRVTMTEDTSTDTAYMGLSSLRSEDTAVYYCARYSYDYWGQGTLVTVSS
VL: QAVVTQEPSLTVSPGGTVTLTCASSTGAVTSGYYPNWFQQKPGQAPRALIYSTSNKHSWTPARFSGSLLGGKAALTLSGVQPEDEAEYYCLLYYGGAYVFGTGTKVTVLG
B4: PSA146/HLA-A*02:01-specific scFv phage clone #14 (scFv, V domains shown)
VH: B3 VH with Q1E, S31G, Y33F, G82E, Y103L
VL: QTVVTQEPSLTVSPGGTVTLTCASSTGAVTSGYYPNWFQQKPGQAPRALIYSTSNKHSWTPARFSGSLLGGKAALTLSGVQPEDEAEYYCLLYYGGAQWVFGGGTKLTVLG
B5: PSA146/HLA-A*02:01-specific scFv phage clone #12 (scFv, V domains shown)
VH: QMQLVQSGSEVKKPGASVKVSCKASGYTFTSYGISWVRQAPGQGLEWMGWISAYNGNTDYVQKLQGRVTMTTDTSTNTAYMELGSLGSDDTAVYYCARTNYNKYDIWGQGTLVTVSS
VL: QSVLTQPPSVSGAPGQRVTISCTGSSSNIGAGYDVHWYQQLPGTAPKLLIYGNSNRPSGVPDRFSGSKSGTSASLAITGLQAEDEADYYCQSYDSSLSEVFGTGTKVTVLG

target: T1, PSA 146-154 peptide/HLA-A*02:01 complex on the cell surface (human); test: flow cytometry, phage on T2 cells, anti-M13 + R-PE anti-mouse IgG
T1 construct: also called PSA146/HLA-A*02:01; PSA146-loaded T2 cells
Protocol: (§1) Individual phage clones from enriched phage display panning pools against PSA146/HLA-A*02:01 complex were incubated in the coated plates. Binding of the phage clones was detected by HRP-conjugated anti-M13 antibodies and developed using HRP substrate. The absorbance was read at 450 nm. […] Then, unique antibody clones were identified through DNA sequencing of ELISA-positive clones. […] T2 cells loaded with different peptides and β2M were first stained with purified scFv phage clones, followed by staining with a mouse anti-M13 mAb, and finally R-PE conjugated horse anti-mouse IgG from Vector Labs. Each step of the staining was performed for between 30-60 minutes on ice and the cells were washed twice between stainings. All 16 clones recognized PSA146-loaded T2 cells specifically. FIG. 3 provides examples of PSA146/HLA-A*02:01 specific phage clone binding to peptide-loaded T2 cells through FACS.

**Q.** Does B1 bind?
**A.** binds

**Q.** Does B2 bind?
**A.** binds

**Q.** Does B3 bind?
**A.** binds

**Q.** Does B4 bind?
**A.** binds

**Q.** Does B5 bind?
**A.** binds

target: T2, Bio-P19 member A2E-9 (chain 2 (heavy): C-terminal BirA substrate peptide, biotinylated there by BirA; tag letters not given, left out); test: phage ELISA, streptavidin plate, anti-M13-HRP
T2 construct: also called biotinylated control peptide A2E-9/HLA-A*02:01 monomer; not shown: BirA substrate peptide (BSP) tag at the C-terminus of the heavy chain
Protocol: as §1

**Q.** Does B1 bind?
**A.** no binding

**Q.** Does B2 bind?
**A.** no binding

**Q.** Does B3 bind?
**A.** no binding

**Q.** Does B4 bind?
**A.** no binding

**Q.** Does B5 bind?
**A.** no binding

target: T3, Bio-P19 member A2E-1 (chain 2: C-terminal BirA substrate peptide (BSP), enzymatically biotinylated; its letters are not printed in the patent and it is left out); test: phage ELISA, streptavidin plate, anti-M13-HRP
T3 construct: also called biotinylated control peptide A2E-1/HLA-A*02:01 monomer
Protocol: as §1

**Q.** Does B1 bind?
**A.** no binding

**Q.** Does B2 bind?
**A.** no binding

**Q.** Does B3 bind?
**A.** no binding

**Q.** Does B4 bind?
**A.** no binding

**Q.** Does B5 bind?
**A.** no binding

target: T4, Bio-P19 member A2E-5 (chain 2 carries a C-terminal BirA substrate peptide (BSP), enzymatically biotinylated; the BSP letters are not given in the patent and are left out); test: phage ELISA, streptavidin plate, anti-M13-HRP
T4 construct: also called biotinylated control peptide A2E-5/HLA-A*02:01 monomer
Protocol: as §1

**Q.** Does B1 bind?
**A.** no binding

**Q.** Does B2 bind?
**A.** no binding

**Q.** Does B3 bind?
**A.** no binding

**Q.** Does B4 bind?
**A.** no binding

**Q.** Does B5 bind?
**A.** no binding

target: T5, Bio-P19 member A2E-6 (chain 2 carries a C-terminal BirA substrate peptide (BSP), enzymatically biotinylated; the BSP letters are not given in the patent and are left out); test: phage ELISA, streptavidin plate, anti-M13-HRP
T5 construct: also called biotinylated control peptide A2E-6/HLA-A*02:01 monomer
Protocol: as §1

**Q.** Does B1 bind?
**A.** no binding

**Q.** Does B2 bind?
**A.** no binding

**Q.** Does B3 bind?
**A.** no binding

**Q.** Does B4 bind?
**A.** no binding

**Q.** Does B5 bind?
**A.** no binding

target: T6, Bio-P19 member A2E-13 (chain 2: C-terminal BirA substrate peptide (BSP), enzymatically biotinylated; its letters are not printed in the patent and it is left out); test: phage ELISA, streptavidin plate, anti-M13-HRP
T6 construct: also called biotinylated control peptide A2E-13/HLA-A*02:01 monomer
Protocol: as §1

**Q.** Does B1 bind?
**A.** no binding

**Q.** Does B2 bind?
**A.** no binding

**Q.** Does B3 bind?
**A.** no binding

**Q.** Does B4 bind?
**A.** no binding

**Q.** Does B5 bind?
**A.** no binding

target: T7, Bio-P19 member A2E-8 (chain 2 (heavy): C-terminal BirA substrate peptide, biotinylated there by BirA; tag letters not given, left out); test: phage ELISA, streptavidin plate, anti-M13-HRP
T7 construct: also called biotinylated control peptide A2E-8/HLA-A*02:01 monomer; not shown: BirA substrate peptide (BSP) tag at the C-terminus of the heavy chain
Protocol: as §1

**Q.** Does B1 bind?
**A.** no binding

**Q.** Does B2 bind?
**A.** no binding

**Q.** Does B3 bind?
**A.** no binding

**Q.** Does B4 bind?
**A.** no binding

**Q.** Does B5 bind?
**A.** no binding

target: T8, Bio-P19 member A2E-15 (chain 2: C-terminal BirA substrate peptide (BSP), enzymatically biotinylated; its letters are not printed in the patent and it is left out); test: phage ELISA, streptavidin plate, anti-M13-HRP
T8 construct: also called biotinylated control peptide A2E-15/HLA-A*02:01 monomer
Protocol: as §1

**Q.** Does B1 bind?
**A.** no binding

**Q.** Does B2 bind?
**A.** no binding

**Q.** Does B3 bind?
**A.** no binding

**Q.** Does B4 bind?
**A.** no binding

**Q.** Does B5 bind?
**A.** no binding

target: T9, Bio-P19 member A2E-11 (chain 2: C-terminal BirA substrate peptide (BSP), enzymatically biotinylated; its letters are not printed in the patent and it is left out); test: phage ELISA, streptavidin plate, anti-M13-HRP
T9 construct: also called biotinylated control peptide A2E-11/HLA-A*02:01 monomer
Protocol: as §1

**Q.** Does B1 bind?
**A.** no binding

**Q.** Does B2 bind?
**A.** no binding

**Q.** Does B3 bind?
**A.** no binding

**Q.** Does B4 bind?
**A.** no binding

**Q.** Does B5 bind?
**A.** no binding

target: T10, Bio-P19 member A2E-7 (chain 2 (heavy): C-terminal BirA substrate peptide, biotinylated there by BirA; tag letters not given, left out); test: phage ELISA, streptavidin plate, anti-M13-HRP
T10 construct: also called biotinylated control peptide A2E-7/HLA-A*02:01 monomer; not shown: BirA substrate peptide (BSP) tag at the C-terminus of the heavy chain
Protocol: as §1

**Q.** Does B1 bind?
**A.** no binding

**Q.** Does B2 bind?
**A.** no binding

**Q.** Does B3 bind?
**A.** no binding

**Q.** Does B4 bind?
**A.** no binding

**Q.** Does B5 bind?
**A.** no binding

target: T11, Bio-P19 member A2E-4 (chain 2 carries a C-terminal BirA substrate peptide (BSP), enzymatically biotinylated; the BSP letters are not given in the patent and are left out); test: phage ELISA, streptavidin plate, anti-M13-HRP
T11 construct: also called biotinylated control peptide A2E-4/HLA-A*02:01 monomer
Protocol: as §1

**Q.** Does B1 bind?
**A.** no binding

**Q.** Does B2 bind?
**A.** no binding

**Q.** Does B3 bind?
**A.** no binding

**Q.** Does B4 bind?
**A.** no binding

**Q.** Does B5 bind?
**A.** no binding

target: T12, Bio-P19 member A2E-17 (chain 2: C-terminal BirA substrate peptide (BSP), enzymatically biotinylated; its letters are not printed in the patent and it is left out); test: phage ELISA, streptavidin plate, anti-M13-HRP
T12 construct: also called biotinylated control peptide A2E-17/HLA-A*02:01 monomer
Protocol: as §1

**Q.** Does B1 bind?
**A.** no binding

**Q.** Does B2 bind?
**A.** no binding

**Q.** Does B3 bind?
**A.** no binding

**Q.** Does B4 bind?
**A.** no binding

**Q.** Does B5 bind?
**A.** no binding

target: T13, Bio-P19 member A2E-10 (chain 2: C-terminal BirA substrate peptide (BSP), enzymatically biotinylated; its letters are not printed in the patent and it is left out); test: phage ELISA, streptavidin plate, anti-M13-HRP
T13 construct: also called biotinylated control peptide A2E-10/HLA-A*02:01 monomer
Protocol: as §1

**Q.** Does B1 bind?
**A.** no binding

**Q.** Does B2 bind?
**A.** no binding

**Q.** Does B3 bind?
**A.** no binding

**Q.** Does B4 bind?
**A.** no binding

**Q.** Does B5 bind?
**A.** no binding

target: T14, Bio-P19 member A2E-19 (chain 2 carries a C-terminal BirA substrate peptide (BSP), enzymatically biotinylated; the BSP letters are not given in the patent and are left out); test: phage ELISA, streptavidin plate, anti-M13-HRP
T14 construct: also called biotinylated control peptide A2E-19/HLA-A*02:01 monomer
Protocol: as §1

**Q.** Does B1 bind?
**A.** no binding

**Q.** Does B2 bind?
**A.** no binding

**Q.** Does B3 bind?
**A.** no binding

**Q.** Does B4 bind?
**A.** no binding

**Q.** Does B5 bind?
**A.** no binding

target: T15, Bio-P19 member A2E-14 (chain 2: C-terminal BirA substrate peptide (BSP), enzymatically biotinylated; its letters are not printed in the patent and it is left out); test: phage ELISA, streptavidin plate, anti-M13-HRP
T15 construct: also called biotinylated control peptide A2E-14/HLA-A*02:01 monomer
Protocol: as §1

**Q.** Does B1 bind?
**A.** no binding

**Q.** Does B2 bind?
**A.** no binding

**Q.** Does B3 bind?
**A.** no binding

**Q.** Does B4 bind?
**A.** no binding

**Q.** Does B5 bind?
**A.** no binding

target: T16, Bio-P19 member A2E-16 (chain 2: C-terminal BirA substrate peptide (BSP), enzymatically biotinylated; its letters are not printed in the patent and it is left out); test: phage ELISA, streptavidin plate, anti-M13-HRP
T16 construct: also called biotinylated control peptide A2E-16/HLA-A*02:01 monomer
Protocol: as §1

**Q.** Does B1 bind?
**A.** no binding

**Q.** Does B2 bind?
**A.** no binding

**Q.** Does B3 bind?
**A.** no binding

**Q.** Does B4 bind?
**A.** no binding

**Q.** Does B5 bind?
**A.** no binding

target: T17, Bio-P19 member A2E-21 (chain 2 carries a C-terminal BirA substrate peptide (BSP), enzymatically biotinylated; the BSP letters are not given in the patent and are left out); test: phage ELISA, streptavidin plate, anti-M13-HRP
T17 construct: also called biotinylated control peptide A2E-21/HLA-A*02:01 monomer
Protocol: as §1

**Q.** Does B1 bind?
**A.** no binding

**Q.** Does B2 bind?
**A.** no binding

**Q.** Does B3 bind?
**A.** no binding

**Q.** Does B4 bind?
**A.** no binding

**Q.** Does B5 bind?
**A.** no binding
